This is an account of results in PMC12817079.

The target in series [1] is T1, SOG1NAC (WT NAC domain) (Arabidopsis thaliana, UniProt Q6NQK2 58-211).
T1 sequence: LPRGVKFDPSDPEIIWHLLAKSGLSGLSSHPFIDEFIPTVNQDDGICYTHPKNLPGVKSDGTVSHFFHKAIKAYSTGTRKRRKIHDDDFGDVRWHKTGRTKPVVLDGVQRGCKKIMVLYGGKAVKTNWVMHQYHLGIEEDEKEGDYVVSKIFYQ
The series can be described thus: EMSA. On the technique in general: Mobility shift assays separate free from complexed probe on a gel.

Series [2] has as its target T1, SOG1NAC (WT NAC domain). As to the kind of experiment: EMSA. This is another data set of the same source.
Series [3] deals with T1, SOG1NAC (WT NAC domain). The series can be described thus: ITC. For orientation: ITC needs no label: the signal is the heat of the interaction.
A further series has as its target T2, SOG1NAC-RKRR (Arabidopsis thaliana, UniProt Q6NQK2 58-211, R136A;K137A;R138A;R139A).
T2 sequence: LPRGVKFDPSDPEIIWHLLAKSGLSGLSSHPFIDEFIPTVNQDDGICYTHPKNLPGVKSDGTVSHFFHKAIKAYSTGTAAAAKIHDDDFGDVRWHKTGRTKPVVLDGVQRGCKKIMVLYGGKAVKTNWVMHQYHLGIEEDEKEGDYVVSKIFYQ
As to the kind of experiment: EMSA.

For a further series, the target named is T3, SOG1NAC-DNAstrand (Arabidopsis thaliana, UniProt Q6NQK2 58-211, R150S;H152S;T154A;R156S;T157S).
T3 sequence: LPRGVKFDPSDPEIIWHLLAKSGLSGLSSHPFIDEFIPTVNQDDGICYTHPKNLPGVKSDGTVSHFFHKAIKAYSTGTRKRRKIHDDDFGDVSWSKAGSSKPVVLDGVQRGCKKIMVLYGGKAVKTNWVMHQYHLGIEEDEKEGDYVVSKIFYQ
The series can be described thus: EMSA.

Series [4] addresses T1, SOG1NAC (WT NAC domain). As to the kind of experiment: EMSA. This is another data set of the same source.
The target in series [5] is T1, SOG1NAC (WT NAC domain). As to the kind of experiment: ITC. The source holds these as a separate data set.
The target of series [6] is T1, SOG1NAC (WT NAC domain). As to the kind of experiment: EMSA. The source holds these as a separate data set.
For series [7], the target named is T1, SOG1NAC (WT NAC domain). As to the kind of experiment: EMSA. The source holds these as a separate data set.
In series [8] the target is T1, SOG1NAC (WT NAC domain). The series can be described thus: EMSA. The source holds these as a separate data set.

In general, Kd refers to the equilibrium constant for the complex coming apart. Low values mean tighter binding, high ones weaker binding.

B1: pSMR5 site 3 (dsDNA)
DNA 1: ATTAAGAACCTTATTAGGAAAGTGCGAGAGA
DNA 2: TCTCTCGCACTTTCCTAATAAGGTTCTTAAT
Turning to B1, the binding result in the series with SOG1NAC (WT NAC domain) [1] is recorded as “no binding”.

B2: Designed oligo 1 (two pBRCA1 sites) (dsDNA)
DNA 1: TCTGTAAAGCTTTCAAGGGAAGCCTCTTTGACGTAACAGAAACCCCGGAGTAAGCTCCCGTGGGTCTGTAAAGCTTTCAAGGGAAGCCTCTTTGA
DNA 2: TCAAAGAGGCTTCCCTTGAAAGCTTTACAGACCCACGGGAGCTTACTCCGGGGTTTCTGTTACGTCAAAGAGGCTTCCCTTGAAAGCTTTACAGA
For B2, in the series with SOG1NAC (WT NAC domain) [2], the binding result is recorded as “binds”.

B3: pBRCA1 31 bp (dsDNA)
DNA 1: TCAAAGAGGCTTCCCTTGAAAGCTTTACAGA
DNA 2: TCTGTAAAGCTTTCAAGGGAAGCCTCTTTGA
As to B3, in the series with SOG1NAC (WT NAC domain) [3], the Kd came out at 139 nM. Further, the binding result with SOG1NAC-RKRR and with SOG1NAC-DNAstrand was “no binding” each time.

B4: pTKa1 31 bp (dsDNA)
DNA 1: TGACAAATCTTCTCCAGCAATTTTCTTCCTT
DNA 2: AAGGAAGAAAATTGCTGGAGAAGATTTGTCA
Take B4: in the series with SOG1NAC (WT NAC domain) [4], the binding result is given as “binds”.

B5: non-target 31 bp (random) (dsDNA)
DNA 1: GTCGGCGATGGTGGTAACTAATTATGTTCCT
DNA 2: AGGAACATAATTAGTTACCACCATCGCCGAC
For B5, the binding result with SOG1NAC (WT NAC domain) [5] is recorded as “no binding”.

B6: pXRI1 31 bp (dsDNA)
DNA 1: ATAAAAAGCTTCTCTTGCAATTCTCTCTTCC
DNA 2: GGAAGAGAGAATTGCAAGAGAAGCTTTTTAT
Turning to B6, the binding result in the series with SOG1NAC (WT NAC domain) [4] was “binds”.

B7: pSMR5 site 2 (RC) (dsDNA)
DNA 1: TTAGATTGCTTCTTTATTACACTAGTTTTGG
DNA 2: CCAAAACTAGTGTAATAAAGAAGCAATCTAA
Turning to B7, in the series with SOG1NAC (WT NAC domain) [6], the binding result was “binds”.

B8: Designed oligo 2 (one pBRCA1 site) (dsDNA)
DNA 1: TCTGTAAAGCTTTCAAGGGAAGCCTCTTTGACGTAACAGAAACCCCGGAGTAAGCTCCCGTGGGGTCGGCGATGGTGGTAACTAATTATGTTCCT
DNA 2: AGGAACATAATTAGTTACCACCATCGCCGACCCCACGGGAGCTTACTCCGGGGTTTCTGTTACGTCAAAGAGGCTTCCCTTGAAAGCTTTACAGA
Regarding B8, the binding result in the series with SOG1NAC (WT NAC domain) [7] is given as “binds”.

B9: pBRCA1 49 bp (dsDNA)
DNA 1: GCGTGTCCTTCAAAGAGGCTTCCCTTGAAAGCTTTACAGACTAAATAAA
DNA 2: TTTATTTAGTCTGTAAAGCTTTCAAGGGAAGCCTCTTTGAAGGACACGC
Regarding B9, in the series with SOG1NAC (WT NAC domain) [6], the binding result was “binds”.

B10: pSMR5 97 bp (dsDNA)
DNA 1: TACCTAGCAACTTCCAGAACAAGCTACGGTCACTTCCAAAACTAGTGTAATAAAGAAGCAATCTAATTAAGAACCTTATTAGGAAAGTGCGAGAGAG
DNA 2: CTCTCTCGCACTTTCCTAATAAGGTTCTTAATTAGATTGCTTCTTTATTACACTAGTTTTGGAAGTGACCGTAGCTTGTTCTGGAAGTTGCTAGGTA
B10: in the series with SOG1NAC (WT NAC domain) [8], the binding result was “binds”.

B11: pSMR5 site 1 (RC) (dsDNA)
DNA 1: TGACCGTAGCTTGTTCTGGAAGTTGCTAGGT
DNA 2: ACCTAGCAACTTCCAGAACAAGCTACGGTCA
Take B11: the binding result with SOG1NAC (WT NAC domain) [6] is listed as “binds”.
